According to publication PMC3845372:

Target: RecA (RecAEc) (Escherichia coli, UniProt P0A7G6 2-353)
Experiment: fluorescence anisotropy

RecA (RecAEc), sequence (P0A7G6 2-353): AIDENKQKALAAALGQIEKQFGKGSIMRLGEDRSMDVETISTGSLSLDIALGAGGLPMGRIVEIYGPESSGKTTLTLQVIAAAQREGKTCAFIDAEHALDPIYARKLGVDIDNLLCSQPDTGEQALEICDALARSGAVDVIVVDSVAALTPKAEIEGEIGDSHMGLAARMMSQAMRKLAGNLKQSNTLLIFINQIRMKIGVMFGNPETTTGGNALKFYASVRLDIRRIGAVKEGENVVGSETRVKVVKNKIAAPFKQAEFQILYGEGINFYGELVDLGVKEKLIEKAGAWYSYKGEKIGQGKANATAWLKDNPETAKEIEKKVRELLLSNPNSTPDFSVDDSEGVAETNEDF

| Binder | Kd | binding result |
| --- | --- | --- |
| TTTTTTTTTTTTTTTT (ssDNA) [oligo dT16] | 640 ± 260 nM | – |
| GGGTGGGTTGGGTGGG (structured_DNA) [dimeric pilE G4 (NG16 core)] | – | no binding |
